Assay results: the supplement of paper PMC10065799, “High-throughput profiling of sequence recognition by tyrosine kinases and SH2 domains using bacterial peptide display” (eLife, 2023)
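Note: 11-residue human phosphosite peptides and single-mutation variants displayed on the E. coli surface, counted by deep sequencing, each peptide's frequency after selection divided by its frequency in the unselected input library; frequency after pTyr selection over input frequency; kinase dosed for 20-30% of maximal phosphorylation in three min.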

What follows are sequences tested against FGFR1 (UniProt P11362) (assay: phosphorylation enrichment, bacterial display (enrichment ratio); higher = better substrate or ligand; peptides without Tyr show the background).
Sequence of FGFR1 (P11362 whole entry, looked up): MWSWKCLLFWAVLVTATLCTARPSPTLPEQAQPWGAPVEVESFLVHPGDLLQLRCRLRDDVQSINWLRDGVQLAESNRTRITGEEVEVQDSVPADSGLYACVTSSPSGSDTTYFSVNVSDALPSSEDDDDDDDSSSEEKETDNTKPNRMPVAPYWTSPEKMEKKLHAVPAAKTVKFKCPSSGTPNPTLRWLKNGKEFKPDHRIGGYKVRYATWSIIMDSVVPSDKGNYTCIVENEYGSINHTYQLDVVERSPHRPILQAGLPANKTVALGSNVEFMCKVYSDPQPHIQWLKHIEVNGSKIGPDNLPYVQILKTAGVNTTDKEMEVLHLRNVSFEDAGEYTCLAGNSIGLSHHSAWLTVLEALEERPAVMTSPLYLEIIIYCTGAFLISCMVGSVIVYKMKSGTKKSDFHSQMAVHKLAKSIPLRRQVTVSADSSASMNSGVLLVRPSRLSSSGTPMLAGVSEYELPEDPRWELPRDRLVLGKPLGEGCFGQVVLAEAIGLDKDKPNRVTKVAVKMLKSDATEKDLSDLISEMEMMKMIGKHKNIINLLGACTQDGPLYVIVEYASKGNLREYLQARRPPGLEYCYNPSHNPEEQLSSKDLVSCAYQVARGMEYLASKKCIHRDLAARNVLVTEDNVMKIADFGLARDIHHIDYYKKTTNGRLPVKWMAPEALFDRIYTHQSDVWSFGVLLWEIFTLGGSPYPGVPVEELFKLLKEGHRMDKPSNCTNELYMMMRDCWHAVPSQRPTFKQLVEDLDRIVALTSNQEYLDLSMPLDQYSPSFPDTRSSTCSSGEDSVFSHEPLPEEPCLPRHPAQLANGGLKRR
With AGQKDYDRLRP [RAC3_Y64_E62K] the phosphorylation enrichment was 0.462.
Sequence EWKQKYEESQS [MYH6_Y1462] has a phosphorylation enrichment of 0.499.
RNEAFYDTFST [EFCAB3_Y372_S370A] gave a phosphorylation enrichment of 0.652.
With SVTCTYSPVLN [TP53_Y126_A129V] the phosphorylation enrichment was 0.558.
Sequence CERLPYDANKW [FLT1_Y815_S818N] has a phosphorylation enrichment of 0.422.
Sequence NPQKSYFIRLF [WAS_Y83_YF] has a phosphorylation enrichment of 0.579.
Work on RNGDRYFKGIV [DCX_Y64] yielded a phosphorylation enrichment of 0.444.
Sequence LDPDSYNVFEN [FOXC1_Y159_M161V] has a phosphorylation enrichment of 0.527.
Work on LANNEYYFRVC yielded a phosphorylation enrichment of 3.72.
FASVEYQEALS [GALNS_Y461_A459V] was tested, and the phosphorylation enrichment was 0.484.
DSEIRYLSADS [TTF1_Y476] gave a phosphorylation enrichment of 0.546.
Work on VTVLDYEKIGK [SYT1_Y365_D366E] yielded a phosphorylation enrichment of 0.456.
PSVVAYPKRSQ [MARK3_Y432] gave a phosphorylation enrichment of 0.39.
For LPKEQYLCTKE [AFG3L2_Y614_Y616C], the phosphorylation enrichment was 0.482.
For CSPLLYRVIMS [OR8D4_Y132], the phosphorylation enrichment was 0.611.
GGPAEYLRRAS [PKLR_Y38_G37E] was tested, and the phosphorylation enrichment was 0.363.
Sequence EPGNLYIAKVE [CNTN4_Y180_T176P] has a phosphorylation enrichment of 0.435.
TEQDPSNNIVR [MMUT_Y364_Y364S] gave a phosphorylation enrichment of 0.55.
GSSKIYFLHAD [TLR5_Y108_P112A] showed a phosphorylation enrichment of 0.8.
Work on PGQRVYVVAER [SHH_Y316] yielded a phosphorylation enrichment of 0.522.
With WQQQSYLDSGI [CTNNB1_Y30] the phosphorylation enrichment was 0.479.
GKGGSYSQAAC [HLA-B_Y344] gave a phosphorylation enrichment of 0.385.
Work on RSSGPYGGGGQ [HNRNPA1_Y341] yielded a phosphorylation enrichment of 0.589.
FSEVRYVKEPY [HIPK4_Y170] gave a phosphorylation enrichment of 0.668.
TGDFGYRTPGY [TNS2_Y668_A670T] was tested, and the phosphorylation enrichment was 0.404.
NESVDYRATFP [MET_Y1003] gave a phosphorylation enrichment of 0.427.
LERDIYNREEF [HLA-DPB1_Y59_Y57D] gave a phosphorylation enrichment of 1.03.
With RETLTYAQAQG [BRD1_Y33_R38G] the phosphorylation enrichment was 0.916.
MSLRSYGSWEG [APC_Y96_R99W] was tested, and the phosphorylation enrichment was 0.034.

The sequences below were run against Fyn (UniProt P06241) in the same assay as above.
Sequence of Fyn (P06241 whole entry, looked up): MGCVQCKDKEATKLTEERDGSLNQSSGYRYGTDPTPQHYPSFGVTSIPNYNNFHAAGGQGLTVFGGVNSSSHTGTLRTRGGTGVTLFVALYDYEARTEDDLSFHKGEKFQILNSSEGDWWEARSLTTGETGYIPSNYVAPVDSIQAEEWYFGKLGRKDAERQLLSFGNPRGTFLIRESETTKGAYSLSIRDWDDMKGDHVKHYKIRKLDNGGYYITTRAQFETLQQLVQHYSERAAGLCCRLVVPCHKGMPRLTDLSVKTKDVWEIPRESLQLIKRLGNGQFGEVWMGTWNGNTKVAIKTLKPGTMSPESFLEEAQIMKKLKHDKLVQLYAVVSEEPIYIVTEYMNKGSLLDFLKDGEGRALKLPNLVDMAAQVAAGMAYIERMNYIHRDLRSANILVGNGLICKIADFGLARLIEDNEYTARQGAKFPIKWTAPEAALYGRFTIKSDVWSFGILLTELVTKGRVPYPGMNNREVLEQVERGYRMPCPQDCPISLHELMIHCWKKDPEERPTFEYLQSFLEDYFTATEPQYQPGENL
For AGQKDYDRLRP [RAC3_Y64_E62K], the phosphorylation enrichment was 0.52.
EWKQKYEESQS [MYH6_Y1462] was tested, and the phosphorylation enrichment was 0.49.
RNEAFYDTFST [EFCAB3_Y372_S370A] gave a phosphorylation enrichment of 11.3.
Sequence SVTCTYSPVLN [TP53_Y126_A129V] has a phosphorylation enrichment of 0.613.
In the case of CERLPYDANKW [FLT1_Y815_S818N], the phosphorylation enrichment is reported as 0.506.
With NPQKSYFIRLF [WAS_Y83_YF] the phosphorylation enrichment was 0.453.
With RNGDRYFKGIV [DCX_Y64] the phosphorylation enrichment was 0.665.
LDPDSYNVFEN [FOXC1_Y159_M161V] gave a phosphorylation enrichment of 0.643.
Sequence LANNEYYFRVC has a phosphorylation enrichment of 0.743.
FASVEYQEALS [GALNS_Y461_A459V] was tested, and the phosphorylation enrichment was 0.615.
Sequence DSEIRYLSADS [TTF1_Y476] has a phosphorylation enrichment of 0.526.
In the case of VTVLDYEKIGK [SYT1_Y365_D366E], the phosphorylation enrichment is reported as 0.479.
For PSVVAYPKRSQ [MARK3_Y432], the phosphorylation enrichment was 0.565.
LPKEQYLCTKE [AFG3L2_Y614_Y616C] showed a phosphorylation enrichment of 0.466.
Work on CSPLLYRVIMS [OR8D4_Y132] yielded a phosphorylation enrichment of 0.527.
GGPAEYLRRAS [PKLR_Y38_G37E] gave a phosphorylation enrichment of 0.427.
With EPGNLYIAKVE [CNTN4_Y180_T176P] the phosphorylation enrichment was 0.386.
TEQDPSNNIVR [MMUT_Y364_Y364S] gave a phosphorylation enrichment of 0.492.
For GSSKIYFLHAD [TLR5_Y108_P112A], the phosphorylation enrichment was 0.951.
PGQRVYVVAER [SHH_Y316] gave a phosphorylation enrichment of 0.395.
With WQQQSYLDSGI [CTNNB1_Y30] the phosphorylation enrichment was 0.388.
GKGGSYSQAAC [HLA-B_Y344] gave a phosphorylation enrichment of 0.342.
Sequence RSSGPYGGGGQ [HNRNPA1_Y341] has a phosphorylation enrichment of 0.715.
In the case of FSEVRYVKEPY [HIPK4_Y170], the phosphorylation enrichment is reported as 0.372.
TGDFGYRTPGY [TNS2_Y668_A670T] gave a phosphorylation enrichment of 0.479.
Work on NESVDYRATFP [MET_Y1003] yielded a phosphorylation enrichment of 0.472.
LERDIYNREEF [HLA-DPB1_Y59_Y57D] gave a phosphorylation enrichment of 1.23.
In the case of RETLTYAQAQG [BRD1_Y33_R38G], the phosphorylation enrichment is reported as 0.551.
For MSLRSYGSWEG [APC_Y96_R99W], the phosphorylation enrichment was 0.633.

The sequences below were run against EPHB2 (UniProt P29323) in the same assay as above.
Sequence of EPHB2 (P29323 whole entry, looked up): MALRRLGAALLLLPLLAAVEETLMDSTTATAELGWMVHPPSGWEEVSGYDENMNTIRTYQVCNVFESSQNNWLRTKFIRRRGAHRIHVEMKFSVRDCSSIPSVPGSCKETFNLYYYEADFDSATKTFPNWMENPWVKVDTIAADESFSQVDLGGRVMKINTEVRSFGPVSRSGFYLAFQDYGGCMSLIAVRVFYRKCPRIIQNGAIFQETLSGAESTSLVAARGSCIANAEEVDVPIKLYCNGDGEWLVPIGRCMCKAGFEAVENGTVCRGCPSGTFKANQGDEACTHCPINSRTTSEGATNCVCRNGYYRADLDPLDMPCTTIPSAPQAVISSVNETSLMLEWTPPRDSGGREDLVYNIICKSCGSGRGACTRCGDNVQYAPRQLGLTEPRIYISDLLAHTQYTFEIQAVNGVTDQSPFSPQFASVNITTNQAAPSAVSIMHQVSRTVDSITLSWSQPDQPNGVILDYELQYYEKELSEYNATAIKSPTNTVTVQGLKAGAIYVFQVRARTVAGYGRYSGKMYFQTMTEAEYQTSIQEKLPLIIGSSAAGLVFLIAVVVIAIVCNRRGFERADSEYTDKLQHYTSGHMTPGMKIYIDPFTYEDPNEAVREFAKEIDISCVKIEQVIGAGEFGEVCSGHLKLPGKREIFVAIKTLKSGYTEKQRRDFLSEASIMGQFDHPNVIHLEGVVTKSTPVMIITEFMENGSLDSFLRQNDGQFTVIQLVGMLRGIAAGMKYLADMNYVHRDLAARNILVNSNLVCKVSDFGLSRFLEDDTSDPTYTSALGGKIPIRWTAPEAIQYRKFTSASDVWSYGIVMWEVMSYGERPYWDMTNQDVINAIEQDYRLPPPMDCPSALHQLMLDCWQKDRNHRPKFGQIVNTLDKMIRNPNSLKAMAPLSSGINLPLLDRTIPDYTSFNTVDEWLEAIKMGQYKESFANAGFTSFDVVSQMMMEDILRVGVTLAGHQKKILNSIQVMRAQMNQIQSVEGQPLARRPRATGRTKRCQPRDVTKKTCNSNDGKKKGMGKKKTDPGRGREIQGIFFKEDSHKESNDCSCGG
AGQKDYDRLRP [RAC3_Y64_E62K] gave a phosphorylation enrichment of 0.543.
EWKQKYEESQS [MYH6_Y1462] was tested, and the phosphorylation enrichment was 0.616.
Sequence RNEAFYDTFST [EFCAB3_Y372_S370A] has a phosphorylation enrichment of 3.35.
For SVTCTYSPVLN [TP53_Y126_A129V], the phosphorylation enrichment was 0.692.
CERLPYDANKW [FLT1_Y815_S818N] gave a phosphorylation enrichment of 0.602.
NPQKSYFIRLF [WAS_Y83_YF] was tested, and the phosphorylation enrichment was 0.501.
In the case of RNGDRYFKGIV [DCX_Y64], the phosphorylation enrichment is reported as 0.619.
LDPDSYNVFEN [FOXC1_Y159_M161V] was tested, and the phosphorylation enrichment was 0.703.
In the case of LANNEYYFRVC, the phosphorylation enrichment is reported as 0.993.
In the case of FASVEYQEALS [GALNS_Y461_A459V], the phosphorylation enrichment is reported as 0.588.
DSEIRYLSADS [TTF1_Y476] showed a phosphorylation enrichment of 0.547.
VTVLDYEKIGK [SYT1_Y365_D366E] was tested, and the phosphorylation enrichment was 0.524.
PSVVAYPKRSQ [MARK3_Y432] showed a phosphorylation enrichment of 0.413.
LPKEQYLCTKE [AFG3L2_Y614_Y616C] gave a phosphorylation enrichment of 0.428.
CSPLLYRVIMS [OR8D4_Y132] showed a phosphorylation enrichment of 0.695.
With GGPAEYLRRAS [PKLR_Y38_G37E] the phosphorylation enrichment was 0.334.
EPGNLYIAKVE [CNTN4_Y180_T176P] gave a phosphorylation enrichment of 0.482.
TEQDPSNNIVR [MMUT_Y364_Y364S] showed a phosphorylation enrichment of 0.46.
GSSKIYFLHAD [TLR5_Y108_P112A] was tested, and the phosphorylation enrichment was 0.557.
Sequence PGQRVYVVAER [SHH_Y316] has a phosphorylation enrichment of 0.537.
WQQQSYLDSGI [CTNNB1_Y30] gave a phosphorylation enrichment of 0.433.
GKGGSYSQAAC [HLA-B_Y344] was tested, and the phosphorylation enrichment was 0.365.
Work on RSSGPYGGGGQ [HNRNPA1_Y341] yielded a phosphorylation enrichment of 0.485.
For FSEVRYVKEPY [HIPK4_Y170], the phosphorylation enrichment was 0.449.
TGDFGYRTPGY [TNS2_Y668_A670T] was tested, and the phosphorylation enrichment was 0.423.
In the case of NESVDYRATFP [MET_Y1003], the phosphorylation enrichment is reported as 0.463.
Work on LERDIYNREEF [HLA-DPB1_Y59_Y57D] yielded a phosphorylation enrichment of 0.718.
For RETLTYAQAQG [BRD1_Y33_R38G], the phosphorylation enrichment was 0.934.
MSLRSYGSWEG [APC_Y96_R99W] was tested, and the phosphorylation enrichment was 0.338.

These sequences were tested on c-Src in the same assay as above.
Sequence AGQKDYDRLRP [RAC3_Y64_E62K] has a phosphorylation enrichment of 0.36.
For EWKQKYEESQS [MYH6_Y1462], the phosphorylation enrichment was 0.395.
Sequence RNEAFYDTFST [EFCAB3_Y372_S370A] has a phosphorylation enrichment of 10.
SVTCTYSPVLN [TP53_Y126_A129V] was tested, and the phosphorylation enrichment was 0.815.
CERLPYDANKW [FLT1_Y815_S818N] gave a phosphorylation enrichment of 0.477.
NPQKSYFIRLF [WAS_Y83_YF] gave a phosphorylation enrichment of 0.464.
For RNGDRYFKGIV [DCX_Y64], the phosphorylation enrichment was 0.455.
For LDPDSYNVFEN [FOXC1_Y159_M161V], the phosphorylation enrichment was 0.915.
In the case of LANNEYYFRVC, the phosphorylation enrichment is reported as 0.516.
FASVEYQEALS [GALNS_Y461_A459V] was tested, and the phosphorylation enrichment was 0.442.
Work on DSEIRYLSADS [TTF1_Y476] yielded a phosphorylation enrichment of 0.51.
For VTVLDYEKIGK [SYT1_Y365_D366E], the phosphorylation enrichment was 0.355.
PSVVAYPKRSQ [MARK3_Y432] showed a phosphorylation enrichment of 0.309.
Work on LPKEQYLCTKE [AFG3L2_Y614_Y616C] yielded a phosphorylation enrichment of 0.427.
CSPLLYRVIMS [OR8D4_Y132] showed a phosphorylation enrichment of 0.449.
For GGPAEYLRRAS [PKLR_Y38_G37E], the phosphorylation enrichment was 0.285.
EPGNLYIAKVE [CNTN4_Y180_T176P] was tested, and the phosphorylation enrichment was 0.439.
In the case of TEQDPSNNIVR [MMUT_Y364_Y364S], the phosphorylation enrichment is reported as 0.492.
For GSSKIYFLHAD [TLR5_Y108_P112A], the phosphorylation enrichment was 0.893.
Work on PGQRVYVVAER [SHH_Y316] yielded a phosphorylation enrichment of 0.464.
Sequence WQQQSYLDSGI [CTNNB1_Y30] has a phosphorylation enrichment of 0.38.
With GKGGSYSQAAC [HLA-B_Y344] the phosphorylation enrichment was 0.396.
RSSGPYGGGGQ [HNRNPA1_Y341] gave a phosphorylation enrichment of 0.56.
Sequence FSEVRYVKEPY [HIPK4_Y170] has a phosphorylation enrichment of 0.392.
TGDFGYRTPGY [TNS2_Y668_A670T] showed a phosphorylation enrichment of 0.432.
NESVDYRATFP [MET_Y1003] gave a phosphorylation enrichment of 0.418.
Work on LERDIYNREEF [HLA-DPB1_Y59_Y57D] yielded a phosphorylation enrichment of 1.18.
